Assay results from patent US20030153066A1.

Target: HIV-1 Gag Pr55 (wild-type) (HIV-1) (UniProt P03348)
Assay: cell-based or functional assay

Question: How did the amount of 750S capsid in HP68-immunodepleted cell-free reactions after reconstitution turn out when WGHP68-GST fusion protein was run?
Answer: Its amount of 750S capsid in HP68-immunodepleted cell-free reactions after reconstitution is 3 fold.

Question: With “HuHP68-GST fusion protein (from UniProt P61221 1-599)” as the substance, how does the amount of 750S capsid in HP68-immunodepleted cell-free reactions after reconstitution read?
Answer: The amount of 750S capsid in HP68-immunodepleted cell-free reactions after reconstitution was 3 fold.
